# Test results reported in paper PMC8757444 (ACS Omega, 2021).
# Target: the molecule itself
# Test: dynamic light scattering
protein,measurement,value
Encapsulin from Thermotoga maritima (natural protein) MEFLKRSFAPLTEKQWQEIDNRAREIFKTQLYGRKFVDVEGPYGWEYAAHPLGEVEVLSDENEVVKWGLRKSLPLIELRATFTLDLWELDNLERGKPNVDLSSLEETVRKVAEFEDEVIFRGCEKSGVKGLLSFEERKIECGSTPKDLLEAIVRALSIFSKDGIEGPYTLVINTDRWINFLKEEAGHYPLEKRVEECLRGGKIITTPRIEDALVVSERGGDFKLILGQDLSIGYEDREKDAVRLFITETFTFQVVNPEALILLKF,binding result,binds
